According to publication PMC5715906 (The Journal of General Physiology, 2017):

Biological target: the molecule itself
Assay: crystal structure

B1: GLIC E−2′I + I9′A double mutant (receptor)
chain: QDMVSPPPPIADEPLTVNTGIYLIECYSLDDKAETFKVNAFLSLSWKDRRLAFDPVRSGVRVKTYEPEAIWIPEIRFVNVENARDADVVDISVSPDGTVQYLERFSARVLSPLDFRRYPFDSQTLHIYLIVRSVDTRNIVLAVDLEKVGKNDDVFLTGWDIESFTAVVKPANFALEDRLESKLDYQLRISRQYFSYIPNIILPMLFILFISWTAFWSTSYIANVTLVVSTLAAHIAFNILVETNLPKTPYMTYTGAIIFMIYLFYFVAVIEVTVQHYLKVESQPARAASITRASRIAFPVVFLLANIILAFLFFGF
- stoichiometry N: 5
